Laboratory results taken from PMC8413892.
Like-named read-outs stand apart in the source and are kept apart here.

Assays:
Kir1.1 channel (human) [1] = target: Kir1.1 channel (human) (UniProt P48048)
Kir4.1 channel (human) [2] = target: Kir4.1 channel (human) (UniProt P78508)
Kir1.1 channel (human) [3] = target: Kir1.1 channel (human) (UniProt P48048); remark: listed apart in the source
Kir4.1 channel (human) [4] = target: Kir4.1 channel (human) (UniProt P78508); remark: listed apart in the source

UniProt P48048, sequence (P48048 whole entry): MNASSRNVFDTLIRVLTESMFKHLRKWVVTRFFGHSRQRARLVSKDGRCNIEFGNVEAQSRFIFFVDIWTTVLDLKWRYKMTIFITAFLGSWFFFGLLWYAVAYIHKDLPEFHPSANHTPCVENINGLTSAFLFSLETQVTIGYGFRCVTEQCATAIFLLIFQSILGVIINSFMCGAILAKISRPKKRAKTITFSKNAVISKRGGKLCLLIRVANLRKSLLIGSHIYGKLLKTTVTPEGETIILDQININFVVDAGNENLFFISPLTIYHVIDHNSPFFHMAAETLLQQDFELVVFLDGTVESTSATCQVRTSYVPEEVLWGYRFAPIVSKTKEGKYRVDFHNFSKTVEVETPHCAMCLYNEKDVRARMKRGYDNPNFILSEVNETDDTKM
UniProt P78508, sequence (P78508 whole entry): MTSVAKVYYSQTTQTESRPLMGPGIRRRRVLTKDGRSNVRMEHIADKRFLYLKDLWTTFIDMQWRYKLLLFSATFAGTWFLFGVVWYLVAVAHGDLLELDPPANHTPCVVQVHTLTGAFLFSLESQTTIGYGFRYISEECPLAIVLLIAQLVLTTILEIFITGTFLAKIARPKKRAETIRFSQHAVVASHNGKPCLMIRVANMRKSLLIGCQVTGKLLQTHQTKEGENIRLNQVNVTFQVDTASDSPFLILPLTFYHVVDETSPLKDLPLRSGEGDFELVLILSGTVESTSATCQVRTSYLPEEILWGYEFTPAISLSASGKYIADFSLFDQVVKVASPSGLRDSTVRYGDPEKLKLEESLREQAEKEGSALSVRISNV

| Substance | IC50 of inhibition of Kir1.1 currents at −40 mV, whole-cell patch clamp, HEK293T (Kir1.1 channel (human) [1]) [nM] | IC50 of inhibition of Kir4.1 currents at −40 mV, whole-cell patch clamp, HEK293T (Kir4.1 channel (human) [2]) [nM] | IC50 of inhibition of Kir1.1 currents at −40 mV, whole-cell patch clamp, HEK293T (Kir1.1 channel (human) [3]) [nM] | IC50 of inhibition of Kir4.1 currents at −40 mV, whole-cell patch clamp, HEK293T (Kir4.1 channel (human) [4]) [nM] |
| --- | --- | --- | --- | --- |
| native SsTx-4 (peptide) | 210 | 6200 | – | – |
| recombinant SsTx-4 (peptide) | – | – | 60.4 | 5600 |
